From patent US20130123481A1, “MODIFIED NUCLEOSIDES, NUCLEOTIDES, AND NUCLEIC ACIDS, AND USES THEREOF” (MODERNA THERAPEUTICS, priority 2011, published 2013)

How the values were obtained:
[1] = tested on: peripheral blood mononuclear cells (PBMC); test: In Vitro PBMC Studies: Percent modification - G-CSF expression; type: cell-based, human; details: for G-CSF Expression: 480 ng mRNA
Protocol: 480 ng of G-CSF mRNA modified with 5-methylcytosine (5mC) and pseudouridine (pseudoU) or unmodified G-CSF mRNA was transfected with 0.4 uL of Lipofectamine 2000 into peripheral blood mononuclear cells (PBMC) from three normal blood donors (D1, D2, and D3). […] The supernatant was harvested and run by ELISA 22 hours after transfection to determine the protein expression. The expression of IFN-alpha and TNF-alpha may be a secondary effect from the transfection of the G-CSF mRNA.

human PBMC = test: Cytokine Study: PBMC - G-CSF production (G-CSF ELISA); type: cell-based; details: mRNA with Lipofectamine 2000
Protocol: (§1) The plates were then incubated at 37° C.
(§2) Each condition was done in duplicate.
In the G-CSF ELISA, background signal from the Lipofectamine 2000 (LF2000) untreated condition was subtracted at each time point.

[2] = tested on: human PBMC, interferon-alpha (IFN-alpha); test: Cytokine Study: PBMC - IFN-alpha production (ELISA)
Protocol: as §1, §2

[3] = tested on: human PBMC, tumor necrosis factor alpha (TNF-alpha)
Protocol: 50 mL of human blood from two donors was received from Research Blood Components (lots KP30928 and KP30931) in sodium heparin tubes. For each donor, the blood was pooled and diluted to 70 mL with DPBS (SAFC Bioscience 59331C, lot 071M8408) and split evenly between two 50 mL conical tubes. 10 mL of Ficoll Paque (GE Healthcare 17-5442-03, lot 10074400) was gently dispensed below the blood layer. The tubes were centrifuged at 2000 rpm for 30 minutes with low acceleration and braking. The tubes were removed and the buffy coat PBMC layers were gently transferred to a fresh 50 mL conical and washed with DPBS. The tubes were centrifuged at 1450 rpm for 10 minutes.
The supernatant was aspirated and the PBMC pellets were resuspended and washed in 50 mL of DPBS. The tubes were centrifuged at 1250 rpm for 10 minutes. This wash step was repeated, and the PBMC pellets were resuspended in 19 mL of Optimem I (Gibco 11058, lot 1072088) and counted. The cell suspensions were adjusted to a concentration of 3.0×10̂6 cells/mL live cells.
These cells were then plated on five 96 well tissue culture treated round bottom plates (Costar 3799) per donor at 50 uL per well. Within 30 minutes, transfection mixtures were added to each well at a volume of 50 uL per well. After 4 hours post transfection, the media was supplemented with 10 uL of Fetal Bovine Serum (Gibco 10082, lot 1012368)
The plate containing the material to be transfected was incubated for 20 minutes. The transfection mixtures were then transferred to each of the human PBMC plates at 50 uL per well. The plates were then incubated at 37° C. At 2, 4, 8, 20, and 44 hours each plate was removed from the incubator, and the supernatants were frozen.
The ability of unmodified and modified mRNA to produce the encoded protein was assessed (G-CSF production) over time as was the ability of the mRNA to trigger innate immune recognition as measured by interferon-alpha production.

[4] = tested on: peripheral blood mononuclear cells (PBMC), TNF-alpha; test: In Vitro PBMC Studies: Percent modification - TNF-alpha expression; type: cell-based, human
Protocol: (§3) The supernatant was harvested and run by ELISA 22 hours after transfection to determine the protein expression.

[5] = tested on: peripheral blood mononuclear cells (PBMC), IFN-alpha; test: In Vitro PBMC Studies: Percent modification - IFN-alpha expression; type: cell-based, human
Protocol: as §3

[6] = tested on: peripheral blood mononuclear cells (PBMC); test: Modified RNA transfected in PBMC (0.1-100% modification) - G-CSF expression; type: cell-based, human
Protocol: 500 ng of G-CSF mRNA modified with 5-methylcytosine (5mC) and pseudouridine (pseudoU) or unmodified G-CSF mRNA was transfected with 0.4 uL of Lipofectamine 2000 into peripheral blood mononuclear cells (PBMC) from three normal blood donors (D1, D2, and D3). […] The supernatant was harvested 6 hours and 18 hours after transfection and run by ELISA to determine the protein expression. The expression of G-CSF, IFN-alpha, and TNF-alpha for Donor 1 is shown in Table 10, Donor 2 is shown in Table 11 and Donor 3 is shown in Table 12.

mice = test: Intravenous Administration - neutrophil count; type: in vivo, mouse; details: for Neutrophil: I.V. 50 ug RNA at days 0, 2 and 4, 10% lipoplex
Protocol: Neutrophils were measured at days 1, 5 and 8. Controls included non-specific mammalian RNA or the formulation buffer alone (F.Buffer). The mice were bled at days 1, 5 and 8 to determine the effect of mRNA-encoded human G-CSF to increase neutrophil count. The dosing regimen is shown in Table 21 as are the resulting neutrophil counts (thousands/uL; K/uL).
In Table 21, an asterisk (*) indicates statistical significance at p<0.001 compared to buffer.

[7] = Stability of Modified RNA - storage, gel electrophoresis; type: physicochemical
Protocol: Stability experiments were conducted to obtain a better understanding of storage conditions to retain the integrity of modified RNA. […] After the mRNA had been stored for 0 hours, 2 hours, 6 hours, 24 hours, 48 hours, 5 days and 14 days, the mRNA was analyzed by gel electrophoresis using a Bio-Rad EXPERION™ system. The modified, unmodified and lipoplexed G-CSF mRNA was also stored in RNASTABLE® (Biomatrica, Inc. San Diego, Calif.) at 40° C. or water at −80° C. or 40° C. for 35 days before being analyzed by gel electrophoresis.

[8] = tested on: Human primary foreskin fibroblasts (BJ fibroblasts); test: Cell Viability in BJ Fibroblasts (CELL TITER GLO, repeated transfection); type: cell-based; details: normalized to untreated = 100%
Protocol: Control samples of Lipofectamine 2000 (LF2000) and unmodified G-CSF mRNA were also transfected. The modified mRNA or control samples were transfected daily for 4 days. The viability of the cells after transfection was evaluated 6 hours and 24 hours after the first transfection (Ti, 6 hours or T1, 24 hours), and 24 hours after the second (T2, 24 hours) and fourth transfection (T4, 24 hours).
To determine cell viability, the culture medium was completely removed and the cells were washed once with 600 ul of sterile PBS without Ca2+/Mg2+ (Gibco/Life Technologies, Manassas, Va.) in order to rinse-off loosely attached cells. PBS was removed and discarded. The cleaned fibroblasts in each well were treated with 220 ul of a diluted CELL TITER GLO® (Promega, catalog #G7570) stock solution (the CELL TITER GLO® stock solution was further diluted 1:1 with an equal amount of sterile PBS). A sterile pipet tip was used to scratch the cells off the plate and accelerate the lysis process.
For two time intervals, T1, 24 hours and T2, 24 hours, an alternative protocol was applied. Cells were washed with PBS, as described above, and subsequently trypsinized with Trypsin/EDTA solution (Gibco/Life Technologies, Manassas, Va.). Cells were detached and collected in 500 ul of medium containing trypsin inhibitor. Cells were harvested by centrifugation at 1200 rcf for 5 minutes. The cell pellet was resuspended in 500 ul PBS. This cell suspension was kept on ice, and 100 ul of this was combined with 100 ul of undiluted Cell Titer Glo solution.
All of the CELL TITER GLO® lysates were then incubated at room temperature for 20 minutes. 20 ul of the lysates were transferred to a white opaque polystyrene 96-well plate (Corning, Manassas, Va.) and combined with 100 ul diluted CELL TITER GLO® solution. The plate reader used was from BioTek Synergy H1 (BioTek, Winooski, Vt.) and the absolute values were normalized to signal of the untreated BJ Fibroblasts to 100% cell vitality.

[9] = PBMC donor D1, 0.4 uL Lipofectamine 2000, ELISA 22 hours after transfection
[10] = PBMC donor D2, 22 hours after transfection
[11] = PBMC donor D3, 22 hours after transfection

Q: For “Luciferase: control mRNA encoding luciferase (SEQ ID NO: 3), Cap 1, fully modified with 5-methylcytosine and pseudouridine [reference compound]”, which “G-CSF Expression” value [1, 9] is on record?
A: The value was 90.2 pg/mL.

Q: What about the “G-CSF Expression” value [1, 10] of the same molecule?
A: Its value is 0.0 pg/mL.

Q: And the “G-CSF Expression” value [1, 11]?
A: Its value is 22.1 pg/mL.

Q: What about the “G-CSF: 3 Donor Average” value (human PBMC) of the same molecule?
A: Its value is 18 pg/mL.

B1: G-CSF 5-methyl cytosine/pseudouridine: mRNA encoding human G-CSF (SEQ ID NO: 1), Cap 1, 100% substitution with 5-methyl cytidine and pseudouridine (nucleic acid, listed as Homo Sapiens)
chain: GGGAAAUAAGAGAGAAAAGAAGAGUAAGAAGAAAUAUAAGAGCCACCAUGGCCGGUCCCGCGACCCAAAGCCCCAUGAAACUUAUGGCCCUGCAGUUGCUGCUUUGGCACUCGGCCCUCUGGACAGUCCAAGAAGCGACUCCUCUCGGACCUGCCUCAUCGUUGCCGCAGUCAUUCCUUUUGAAGUGUCUGGAGCAGGUGCGAAAGAUUCAGGGCGAUGGAGCCGCACUCCAAGAGAAGCUCUGCGCGACAUACAAACUUUGCCAUCCCGAGGAGCUCGUACUGCUCGGGCACAGCUUGGGGAUUCCCUGGGCUCCUCUCUCGUCCUGUCCGUCGCAGGCUUUGCAGUUGGCAGGGUGCCUUUCCCAGCUCCACUCCGGUUUGUUCUUGUAUCAGGGACUGCUGCAAGCCCUUGAGGGAAUCUCGCCAGAAUUGGGCCCGACGCUGGACACGUUGCAGCUCGACGUGGCGGAUUUCGCAACAACCAUCUGGCAGCAGAUGGAGGAACUGGGGAUGGCACCCGCGCUGCAGCCCACGCAGGGGGCAAUGCCGGCCUUUGCGUCCGCGUUUCAGCGCAGGGCGGGUGGAGUCCUCGUAGCGAGCCACCUUCAAUCAUUUUUGGAAGUCUCGUACCGGGUGCUGAGACAUCUUGCGCAGCCGUGAAGCGCUGCCUUCUGCGGGGCUUGCCUUCUGGCCAUGCCCUUCUUCUCUCCCUUGCACCUGUACCUCUUGGUCUUUGAAUAAAGCCUGAGUAGGAAG
modifications: Cap1; 5-methylcytidine and pseudouridine
Q: For B1, which “IFN-alpha production (in words)” value [2] is on record?
A: Its value is “low but detectable levels”.

Q: And the “IFN-alpha: 3 Donor Average” value [2]?
A: The value was 141 pg/mL.

Q: And the “G-CSF/IFN-alpha (ratio), PC Ratio” value ([2]; human PBMC, 3 donor averages)?
A: The value was 34.

Q: And the “G-CSF: 3 Donor Average” value (human PBMC)?
A: Its value is 4742 pg/mL.

Q: What about the “TNF-alpha production (in words)” value [3] of the same molecule?
A: Its value is “low but detectable levels”.

Q: And the “TNF-alpha: 3 Donor Average” value [3]?
A: The value was 31 pg/mL.

Q: And the “G-CSF/TNF-alpha (ratio), PC Ratio” value ([3]; human PBMC, 3 donor averages)?
A: Its value is 153.

B2: 100% modification: G-CSF mRNA (SEQ ID NO: 1, Cap1) completely modified with 5mC and pseudoU (nucleic acid, listed as Homo Sapiens)
chain: B1 chain
modifications: Cap1; 5-methylcytidine and pseudouridine
Q: For B2, which “Average TNF-a” value [4] is on record?
A: Its value is 47 pg/mL.

Q: What about the “ratio of protein/cytokine production relative to natural G-CSF mRNA, TNF-alpha” value ([4]; PBMC, Table 9) of the same molecule?
A: The value was 27 fold.

Q: And the “G-CSF/TNF-alpha (PC ratio)” value ([4]; calculated from Tables 7 and 8)?
A: The value was 52.

Q: What about the “G-CSF Expression” value [1, 9] of the same molecule?
A: Its value is 1968.9 pg/mL.

Q: And the “G-CSF Expression” value [1, 10]?
A: The value was 2595.6 pg/mL.

Q: What about the “G-CSF Expression” value [1, 11] of the same molecule?
A: The value was 2835.7 pg/mL.

Q: What about the “Average G-CSF” value ([1]; average of PBMC donors D1-D3) of the same molecule?
A: The value was 2466 pg/mL.

Q: What about the “Average IFN-a” value [5] of the same molecule?
A: Its value is 153 pg/mL.

Q: What about the “ratio of protein/cytokine production relative to natural G-CSF mRNA, IFN-alpha” value ([5]; PBMC, Table 9) of the same molecule?
A: The value was 100 fold.

Q: And the “G-CSF/IFN-alpha (PC ratio)” value ([5]; calculated from Tables 7 and 8)?
A: Its value is 16.

Q: And the G-CSF ([6]; PBMC Donor 1, 500 ng mRNA, 6 hours after transfection)?
A: The G-CSF was 1815 pg/mL.

Q: And the G-CSF ([6]; PBMC Donor 1, 18 hours after transfection)?
A: Its G-CSF is 2224 pg/mL.

Q: And the G-CSF ([6]; PBMC Donor 2, 6 hours after transfection)?
A: Its G-CSF is 2184 pg/mL.

Q: And the G-CSF ([6]; PBMC Donor 2, 18 hours after transfection)?
A: Its G-CSF is 2432 pg/mL.

Q: What about the G-CSF ([6]; PBMC Donor 3, 6 hours after transfection) of the same molecule?
A: Its G-CSF is 6086 pg/mL.

Q: What about the G-CSF ([6]; PBMC Donor 3, 18 hours after transfection) of the same molecule?
A: The G-CSF was 7549 pg/mL.

B3: G-CSF modified mRNA: control modified G-CSF mRNA (SEQ ID NO: 1, Cap 1), fully modified 5-methylcytosine and pseudouridine, 8.4 nM (nucleic acid, listed as Homo Sapiens)
chain: B1 chain
modifications: Cap1; 5-methylcytosine and pseudouridine
Q: Which “increase in neutrophil count above control at day 5” value (mice; intravenous administration) does the source give for B3 here?
A: The value was “four to five fold increase”.

B4: unmodified G-CSF: Unmodified G-CSF mRNA (SEQ ID NO: 1, Cap1), storage stability (nucleic acid, listed as Homo Sapiens)
chain: B1 chain
modifications: Cap1
Q: Which “stable out to” value ([7]; stored at 25° C.) does the source give for B4 here?
A: Its value is 48 h.

Q: And the “stable out to” value ([7]; stored at 37° C.)?
A: Its value is 6 h.

Q: What about the “stable out to” value ([7]; stored at 50° C.) of the same molecule?
A: Its value is 2 h.

Q: What about the “Percent Viability T1, 6 hours” value ([8]; T1, 6 hours) of the same molecule?
A: Its value is 101%.

Q: What about the “Percent Viability T1, 24 hours” value ([8]; T1, 24 hours) of the same molecule?
A: The value was 72%.

Q: What about the “Percent Viability T2, 24 hours” value ([8]; T2, 24 hours) of the same molecule?
A: Its value is 74%.

Q: And the “Percent Viability T4, 24 hours” value ([8]; T4, 24 hours)?
A: The value was 42%.

B5: G-CSF (no modification): human G-CSF mRNA having no modifications, formulated in 10% lipoplex (RNAIMAX) (nucleic acid, listed as Homo Sapiens)
chain: B1 chain
modifications: Cap1; polyA tail; lipoplex
Q: For B5, which Neutrophil (mice; Day 1) is on record?
A: Its Neutrophil is 1.88 K/uL.

Q: And the Neutrophil (mice; Day 5)?
A: Its Neutrophil is 1.95 K/uL.

Q: And the Neutrophil (mice; Day 8)?
A: Its Neutrophil is 2.09 K/uL.
